# Article PMC3877365
# Tests used:
# [1] = target: BCRZFP-orfA fusion protein (walleye dermal sarcoma virus orfA protein fused to the BCR-ABL zinc finger protein) (walleye dermal sarcoma virus (WDSV)); assay: two-hybrid; ZFN-Y2H, LacZ reporter: relative β-galactosidase activity (ONPG assay) of colonies in liquid medium, wild-type Gal4 (pADH-Gal4) set to 100%
# [2] = target: BCRZFP-orfA fusion protein (walleye dermal sarcoma virus orfA protein fused to the BCR-ABL zinc finger protein) (walleye dermal sarcoma virus (WDSV)); assay: two-hybrid; ZFN-Y2H: bait fused to BCR-ZFP, prey fused to FokI, co-transformed into AH109 carrying the reporter pADH-Gal4-BS; growth on SD plates lacking histidine and adenine, 30°C, at least three days; colonies counted against non-selective plates; spotting of dilutions
# Chain of FokI-E2F5 fusion protein (human E2F5 fused to the FokI nuclease domain) (natural protein) (Q15329 whole entry, the tested form may be a part): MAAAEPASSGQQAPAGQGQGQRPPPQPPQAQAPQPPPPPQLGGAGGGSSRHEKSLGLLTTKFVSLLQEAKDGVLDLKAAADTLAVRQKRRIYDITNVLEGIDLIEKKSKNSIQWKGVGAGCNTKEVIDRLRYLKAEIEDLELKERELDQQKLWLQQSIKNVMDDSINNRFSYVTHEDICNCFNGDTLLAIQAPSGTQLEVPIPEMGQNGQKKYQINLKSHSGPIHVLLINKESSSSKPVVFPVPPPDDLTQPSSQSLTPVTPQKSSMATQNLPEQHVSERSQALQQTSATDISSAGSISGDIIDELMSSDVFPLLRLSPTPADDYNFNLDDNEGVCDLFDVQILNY
# Chain of BCRZFP-orfA fusion protein (walleye dermal sarcoma virus orfA protein fused to the BCR-ABL zinc finger protein) (walleye dermal sarcoma virus (WDSV)) (Q88939 whole entry, the tested form may be a part): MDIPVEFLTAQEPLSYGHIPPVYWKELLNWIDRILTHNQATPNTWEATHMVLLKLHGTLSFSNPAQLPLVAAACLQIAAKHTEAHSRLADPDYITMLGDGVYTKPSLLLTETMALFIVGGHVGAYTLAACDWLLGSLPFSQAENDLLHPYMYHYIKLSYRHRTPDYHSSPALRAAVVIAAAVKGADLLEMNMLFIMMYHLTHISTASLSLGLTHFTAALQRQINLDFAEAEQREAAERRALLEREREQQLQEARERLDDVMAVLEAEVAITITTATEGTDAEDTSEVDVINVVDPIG
substance,measurement,setting,value
FokI-E2F5 fusion protein (human E2F5 fused to the FokI nuclease domain) (natural protein),relative β-galactosidase activity,[1],84.3%
same,percent of transformants surviving on selective medium,[2],22.5%
